Test results from patent US20240165208A1, “Mutant KRAS-Targeting Peptide and Use Thereof” (GJMEDI INC., priority 2020, published 2024).
No end group written: not given here.

What was measured:
AsPC-1 cells = assay type: cell-based; settings: 48 h
Method: Through 3-(4,5-dimethylthiazol-2-yl)-2,5-diphenyltetrazolium bromide (MTT) analysis, an effect of the anticancer peptide GJ101 on the cell viability of cancer cells was examined. For the cell viability analysis, AsPC-1 cells as a pancreatic cancer cell line were used. The pancreatic cancer cell line was prepared by dispensing the pancreatic cancer cell line at 1×10^3 cells/well (100 μL) and adhering thereto. To treat the anticancer peptide GJ101, the medium of the cells was replaced with a new medium (RPMI-1640). The pancreatic cancer cell lines with different adhering times were treated with the anticancer peptide GJ101 while increasing a concentration gradient, respectively. The pancreatic cancer cells treated with the anticancer peptide GJ101 were incubated for 24 or 48 hours, respectively. Each incubated pancreatic cancer cell was added with an MTT solution (5 mg/mL) and incubated for 90 minutes. After the end of the incubation, an optical density (OD) of pancreatic cancer cells was measured at 540 nm using a microplate reader (Molecular Devices, USA), and a maximum concentration (GI50) at which the growth of pancreatic cancer cells was reduced by half was confirmed. The result of examining the effect of the anticancer peptide GJ101 on the cell viability of tumor cells was illustrated in FIG. 5.

[1] = body weight and general condition in cancer animal model; assay type: in vivo; settings: GJ101 25 mg/kg or 50 mg/kg
Method: To prepare a cancer animal model, AsPC-1 cells as a pancreatic cancer cell line were prepared by dissociation in a Hanks' balanced salt solution (HBSS) and a materigel. The prepared AsPC-1 cells were transplanted into the right flank of a nude mouse at an amount of 2×10^6 cells/10 μL/animal to prepare a cancer animal model.
For an experiments to be described later, the anticancer peptide GJ101 was administered at a concentration of 25 mg/kg or 50 mg/kg from day 16 after the preparation of the cancer animal model. In addition, a control group (Vehicle) was treated with 10% DMSO, 40% PEG400, and 50% DW.
A drug was administered to a cancer animal model, and then the body weight of the individual was measured once a day, and the result were illustrated in FIG. 6.

KRAS G12V protein [2] = target: T1, KRAS G12V protein (UniProt P01116-2 1-188, limits assumed); experiment: ITC, calculated from K and ΔH
T1 construct: also called mutant KRAS G12V; mutant Kirsten-RAS
Method: (§1) In order to examine the affinity of the anticancer peptide GJ101 to the KRAS G12V protein, isothermal titration heat was measured using isothermal titration calorimetry (ITC). Specifically, the KRAS G12V protein was prepared by dialysis with a buffer [20 mM Tris-HCl (pH 7.4), 100 mM NaCl, and 2 mM MgCl₂] so that the final concentration of the KRAS G12V protein was 0.1 mM. Next, the anticancer peptide GJ101 was prepared by diluting the anticancer peptide GJ101 to a concentration of 1.0 mM using the same buffer as described above. Isothermal titration heat measurement was performed by injecting the prepared KRAS G12V protein and anticancer peptide GJ101 into isothermal titration calorimetry. In the isothermal titration heat measurement, the anticancer peptide GJ101 was injected 20 times at 25° C. while stirring at a rate of 1,000 rpm. ΔS was calculated from a standard thermodynamic equation using the calculated K and ΔH values. The results of isothermal titration calorimetry were illustrated in FIG. 3.

KRAS G12V protein [3] = target: T1, KRAS G12V protein; experiment: ITC, GJ101 (1.0 mM) injected into KRAS G12V (0.1 mM), 25 °C
Method: as §1

| Molecule | GI50 (AsPC-1 cells) | moribund state or behavioral abnormalities [1] | ΔS (KRAS G12V protein [2]) | Ka (KRAS G12V protein [3]) | Kd (KRAS G12V protein [3]) | ΔH (KRAS G12V protein [3]) |
| --- | --- | --- | --- | --- | --- | --- |
| LYDVA [GJ101] | 16 µM | not observed | – | – | – | – |
| LYDVA (Synthesised by solid phase peptide synthesis and purified by RP-HPLC to 95% or more; said to consist of 5 amino acids and to be derived from H-REV107; also called mutant KRAS-targeting anticancer peptide) [anticancer peptide GJ101] | – | – | 19.3 cal/mol/deg | 86500 M⁻¹ | 12 µM | -0.994 kcal/mol |
